Source: US7345022B2, “Anti-fibril peptides” (Board of Supervisors of Louisiana State University and …, priority 2002, dated 2008)
*1 amine or outer side, *2 acyl side, *3 side chain or, on linkers, in order; H or OH if unused. Where no end group is shown, it is not given here. [ ]: non-standard residue; d: D form. Dbzg = C-alpha,alpha-dibenzylglycine, O=C(C(Cc1ccccc1)(Cc1ccccc1)N[*:1])[*:2]; Dibg = C-alpha,alpha-diisobutylglycine, CC(C)CC(CC(C)C)(N[*:1])C(=O)[*:2]; Dpg = CCCC(N)(CCC)C(=O)O

Tests used:
[1] = Self-aggregation of the peptide; type: physicochemical
Procedure: Other strategies have included combinatorial approaches to screen short pentapeptides with L- or D-amino acids to develop small, mostly hydrophobic, inhibitors of Aβ1-40 fibril formation. […] Thus, these peptides can themselves become part of high order aggregates.
(§1) wherein Dibg is C^α,α-diisobutylglycine; Dbzg is C^α,α-dibenzylglycine; and Dpg is C^α,α-dipropylglycine. The AMY-1 peptide inhibits aggregation at concentrations of ˜5 μM when incubated with the amyloidogenic peptide Aβ10-35 in phosphate buffer at 37° C., under conditions where the Aβ10-35 peptide alone would form amyloid fibrils. […] AMY-1 is also depicted in FIG. 3. FIG. 4 depicts the manner in which AMY-1 blocks further extension of a growing β-sheet formed from the Aβ peptide.
(3) AMY-2 self-aggregates at 50 μM.

Aβ1-40 = Aβ1-40 (Homo sapiens, UniProt P05067); experiment: Interaction with Aβ1-40: aggregate and fibril formation (visual, scanning probe microscopy); type: biochemical; conditions: for product of the interaction with Aβ1-40: preliminary studies
Procedure: (3) AMY-2 self-aggregates at 50 μM. The interaction of β-Amyloid and AMY-2 is apparent visually. […] SPM images were taken of adsorbed peptide material on a hydrophilic surface (mica or muscovite). […] These non-fibrillar aggregates were ˜100 nm in height and appeared as clusters of aggregated peptide material. […] Another study to explore the later β-Amyloid aggregation (i.e., fibril formation) produced an image of elongated fibrils greater than 10 μm long and 8 nm high.

PC-12 cells = conditions: MTT, reported by Pallitto et al.; cited from earlier work
[2] = prior pentapeptide inhibitors of Aβ1-40 fibril formation; cited from earlier work
Aβ10-35 = target: T1, Aβ10-35 (Homo sapiens, UniProt P05067); experiment: Inhibition of Aβ10-35 aggregation on incubation in phosphate buffer; type: biochemical; conditions: incubated with Aβ10-35 in phosphate buffer at 37° C.
T1 construct: incubated with the amyloidogenic peptide Aβ10-35 in phosphate buffer at 37° C
Procedure: as §1

[3] = tested on: preformed β-amyloid fibrils; experiment: Dissolution of preformed fibrils (SPM and TEM); type: biochemical; conditions: preliminary
Procedure: Preliminary experiments have confirmed that the novel peptides can promote the dissolution of existing fibrils. The ability of the peptide AMY-1 to dissolve preformed fibrils was assessed with both scanning probe microscopy (SPM) and transmission electron microscopy (TEM). […] A twisting appeared in the middle of the length of the fibril, as if the AMY-1 peptide was interpolating into it.

[4] = adsorbed on hydrophilic surface (mica or muscovite), β-Amyloid1-40

Chain of Aβ1-40 (P05067 672-711 limits assumed): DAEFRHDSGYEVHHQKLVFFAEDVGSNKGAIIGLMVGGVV
Chain of preformed β-amyloid fibrils (P05067 681-706 limits assumed): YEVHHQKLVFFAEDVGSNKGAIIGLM

Substance: (Lys)7-Dibg-Val-Dbzg-Phe-Dpg-NH2 (KKKKKKK[Dibg]V[Dbzg]F[Dpg]-NH2; N-terminus assumed; SMILES CCCC(CCC)(NC(=O)[C@H](Cc1ccccc1)NC(=O)C(Cc1ccccc1)(Cc1ccccc1)NC(=O)[C@@H](NC(=O)C(CC(C)C)(CC(C)C)NC(=O)[C@H](CCCCN)NC(=O)[C@H](CCCCN)NC(=O)[C@H](CCCCN)NC(=O)[C@H](CCCCN)NC(=O)[C@H](CCCCN)NC(=O)[C@H](CCCCN)NC(=O)[C@@H](N)CCCCN)C(C)C)C(N)=O) [AMY-2]
- concentration at which the peptide self-aggregates ([1]; preliminary studies, data not shown): 50 µM
- fibril formation (later aggregation study, image) (Aβ1-40; 1:1 ratio of 50 μM β-Amyloid and peptide): no fibril formation
- visual appearance of the solution (Aβ1-40; added to β-amyloid at 1:1 ratio, 50 μM each, room temperature): the solution rapidly turned opaque
- height of the non-fibrillar aggregates (SPM) (Aβ1-40; [4]): ~100 nm
- morphology of the interaction product (SPM images) (Aβ1-40; [4]): large, amorphous aggregates
- product of the interaction with Aβ1-40 (Aβ1-40; data not shown): large, non-fibril aggregate

Substance: KLVF (listed as Homo sapiens)
- protective effect against Aβ toxicity (PC-12 cells): protective effect against Aβ toxicity

Substance: KLVFF
- self-aggregation (literature) [2]: aggregate and form insoluble precipitates
- protective effect against Aβ toxicity (PC-12 cells): protective effect against Aβ toxicity

Substance: Lys-Dibg-Val-Dbzg-Phe-Dpg-(Lys)6-NH2 [AMY-1]
- concentration at which the peptide inhibits aggregation (Aβ10-35): ~5 µM
- self-aggregation [1]: does not aggregate with itself
- fibril formation after long incubation with Aβ1-40 (Aβ1-40; 4.5 month-incubation, preliminary, data not shown): no massive fibrils were formed
- product of the interaction with Aβ1-40 (Aβ1-40; data not shown): small, non-fibril aggregate
- effect on preformed fibrils, SPM image ([3]; SPM at 10×10 μm^2, on mica): less adsorbed Aβ protein on mica
- effect on preformed fibrils, TEM ([3]; preformed β-amyloid, TEM): the fibrillar structures were substantially frayed
